These results are taken from article PMC10881151 (Molecular Biology of the Cell, 2024).

Read-outs that look alike come from different tables or passages of the source.

Series [1] addresses T1, actin filaments (rabbit skeletal muscle actin) (rabbit, UniProt P68135 1-377). As to the kind of experiment: co-sedimentation.
Series [2] concerns the molecule itself. Put plainly: AUC.
For series [3], the target named is T1, actin filaments (rabbit skeletal muscle …). Put plainly: co-sedimentation. The source holds these as a separate data set.

B1: Drp1-WT (full-length human DRP1 isoform 3) (enzyme, UniProt O00429-4 1-699, looked up)
chain: MEALIPVINKLQDVFNTVGADIIQLPQIVVVGTQSSGKSSVLESLVGRDLLPRGTGIVTRRPLILQLVHVSQEDKRKTTGEENGVEAEEWGKFLHTKNKLYTDFDEIRQEIENETERISGNNKGVSPEPIHLKIFSPNVVNLTLVDLPGMTKVPVGDQPKDIELQIRELILRFISNPNSIILAVTAANTDMATSEALKISREVDPDGRRTLAVITKLDLMDAGTDAMDVLMGRVIPVKLGIIGVVNRSQLDINNKKSVTDSIRDEYAFLQKKYPSLANRNGTKYLARTLNRLLMHHIRDCLPELKTRINVLAAQYQSLLNSYGEPVDDKSATLLQLITKFATEYCNTIEGTAKYIETSELCGGARICYIFHETFGRTLESVDPLGGLNTIDILTAIRNATGPRPALFVPEVSFELLVKRQIKRLEEPSLRCVELVHEEMQRIIQHCSNYSTQELLRFPKLHDAIVEVVTCLLRKRLPVTNEMVHNLVAIELAYINTKHPDFADACGLMNNNIEEQRRNRLARELPSAVSRDKVASGGGGVGDGVQEPTTGNWRGMLKTSKAEELLAEEKSKPIPIMPASPQKGHAVNLLDVPVPVARKLSAREQRDCEVIERLIKSYFLIVRKNIQDSVPKAVMHFLVNHVKDTLQSELVGQLYKSSLLDDLLTESEDMAQRRKEAADMLKALQGASQIIAEIRETHLW
Consider B1, for which the Kd in series [1] was found to be 1700 nM; in series [3], 1200 nM. Also, the “stoichiometry N” value in series [2] amounted to 2.

The Kd is the concentration at which binding is half-saturated. Low values mean higher affinity, high ones lower affinity. By stoichiometry N is commonly meant the number of molecules, sites or subunits per partner or assembly.
